Results taken from publication PMC3083827.

Target: T1, Whn (FoxN1) DNA binding domain, WhnDBD (UniProt Q61575 271-367)
T1 sequence: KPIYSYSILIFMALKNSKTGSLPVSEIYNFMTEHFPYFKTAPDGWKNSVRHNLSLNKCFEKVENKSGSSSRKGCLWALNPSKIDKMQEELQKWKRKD
Experiment: EMSA

B1: MUT (S1P with core CG to TA) (dsDNA)
DNA 1: CTCCTCCCTGCGCGAAGCGGAAGTGATACGAGGCGTAGCGGAAGTT
DNA 2: AACTTCCGCTACGCCTCGTATCACTTCCGCTTCGCGCAGGGAGGAG
  binding result: no binding
